Experimental data: US20240261333A1 (published 2024)

T1: CDSN (UniProt Q15517 33-529, limits assumed)
T1 construct: also called NP_001255.4
T1 sequence (looked up): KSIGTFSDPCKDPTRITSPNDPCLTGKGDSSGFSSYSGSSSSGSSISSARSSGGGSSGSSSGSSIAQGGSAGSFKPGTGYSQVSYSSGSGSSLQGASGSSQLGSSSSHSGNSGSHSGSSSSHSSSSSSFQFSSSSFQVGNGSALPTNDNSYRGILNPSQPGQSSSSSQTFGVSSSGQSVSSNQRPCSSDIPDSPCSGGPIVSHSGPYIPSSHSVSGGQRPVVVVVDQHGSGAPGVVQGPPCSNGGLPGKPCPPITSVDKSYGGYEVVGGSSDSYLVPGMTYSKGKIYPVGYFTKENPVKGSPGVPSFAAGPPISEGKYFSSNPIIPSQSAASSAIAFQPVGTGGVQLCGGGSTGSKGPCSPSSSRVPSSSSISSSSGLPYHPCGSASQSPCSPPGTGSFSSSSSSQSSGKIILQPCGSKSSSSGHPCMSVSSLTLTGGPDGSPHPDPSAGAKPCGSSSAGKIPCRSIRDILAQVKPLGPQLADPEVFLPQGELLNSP

T2: ARG1 (UniProt P05089 1-322)
T2 construct: also called NP_000036.2 (+1)
T2 sequence (looked up): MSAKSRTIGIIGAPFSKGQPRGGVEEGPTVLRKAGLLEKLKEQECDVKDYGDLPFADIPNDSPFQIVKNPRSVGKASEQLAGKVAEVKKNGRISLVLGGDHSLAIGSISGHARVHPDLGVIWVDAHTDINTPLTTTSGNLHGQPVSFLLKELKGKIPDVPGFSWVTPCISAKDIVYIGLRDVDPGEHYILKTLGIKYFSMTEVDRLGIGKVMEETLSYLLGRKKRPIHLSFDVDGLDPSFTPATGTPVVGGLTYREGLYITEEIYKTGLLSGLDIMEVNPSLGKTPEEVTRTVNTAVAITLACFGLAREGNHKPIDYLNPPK

T3: POF1B (UniProt Q8WVV4-1 1-595, limits assumed)
T3 construct: also called NP_001294869.1 (+2)
T3 sequence (looked up): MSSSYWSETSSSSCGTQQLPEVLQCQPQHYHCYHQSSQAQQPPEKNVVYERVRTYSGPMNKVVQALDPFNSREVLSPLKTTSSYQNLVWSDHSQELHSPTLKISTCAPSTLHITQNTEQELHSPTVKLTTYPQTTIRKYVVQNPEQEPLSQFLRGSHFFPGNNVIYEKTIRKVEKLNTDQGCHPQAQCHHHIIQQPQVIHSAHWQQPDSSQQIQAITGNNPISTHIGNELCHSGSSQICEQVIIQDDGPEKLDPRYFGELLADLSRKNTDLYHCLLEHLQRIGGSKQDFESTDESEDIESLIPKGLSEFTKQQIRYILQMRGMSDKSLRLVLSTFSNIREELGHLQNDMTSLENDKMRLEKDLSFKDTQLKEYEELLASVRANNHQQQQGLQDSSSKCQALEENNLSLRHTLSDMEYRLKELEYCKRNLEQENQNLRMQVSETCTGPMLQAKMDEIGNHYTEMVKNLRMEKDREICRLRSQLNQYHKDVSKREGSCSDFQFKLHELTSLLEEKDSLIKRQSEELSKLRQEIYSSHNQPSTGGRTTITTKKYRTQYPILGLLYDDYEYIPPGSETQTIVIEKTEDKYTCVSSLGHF

T4: EMD (UniProt P50402 1-254)
T4 construct: also called NP_000108.1
T4 sequence (looked up): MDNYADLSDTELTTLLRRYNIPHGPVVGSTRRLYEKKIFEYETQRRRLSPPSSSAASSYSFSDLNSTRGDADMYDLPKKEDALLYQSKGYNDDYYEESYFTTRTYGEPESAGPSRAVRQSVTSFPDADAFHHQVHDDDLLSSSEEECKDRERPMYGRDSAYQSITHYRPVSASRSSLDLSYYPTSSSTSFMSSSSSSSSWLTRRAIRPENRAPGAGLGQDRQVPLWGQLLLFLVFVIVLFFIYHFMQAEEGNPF

T5: TMEM59 (UniProt Q9BXS4 36-323, limits assumed)
T5 construct: also called NP_001291972.1
T5 sequence (looked up): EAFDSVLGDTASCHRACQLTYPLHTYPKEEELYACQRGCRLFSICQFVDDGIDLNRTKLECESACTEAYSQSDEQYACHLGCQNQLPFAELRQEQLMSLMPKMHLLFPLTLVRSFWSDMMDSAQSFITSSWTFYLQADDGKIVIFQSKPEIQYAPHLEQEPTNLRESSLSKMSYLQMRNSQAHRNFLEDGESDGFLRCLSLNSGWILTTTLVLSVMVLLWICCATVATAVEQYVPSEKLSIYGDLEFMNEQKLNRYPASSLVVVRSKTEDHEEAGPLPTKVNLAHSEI

T6: S100A9 (UniProt P06702 1-114)
T6 construct: Protein found in the co-IP by mass spectrometry; also called NP_002956.1
T6 sequence (looked up): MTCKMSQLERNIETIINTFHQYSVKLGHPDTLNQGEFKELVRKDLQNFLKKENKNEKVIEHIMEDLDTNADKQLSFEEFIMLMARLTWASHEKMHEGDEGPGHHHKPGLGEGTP

T7: SPRR2E (UniProt P22531 1-72)
T7 construct: Protein found in the co-IP by mass spectrometry; also called NP_001019380.2
T7 sequence (looked up): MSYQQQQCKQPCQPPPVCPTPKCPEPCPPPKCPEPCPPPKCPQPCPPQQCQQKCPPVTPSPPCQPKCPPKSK

T8: S100A8 (UniProt P05109 1-93)
T8 construct: Protein found in the co-IP by mass spectrometry; also called NP_002955.2
T8 sequence (looked up): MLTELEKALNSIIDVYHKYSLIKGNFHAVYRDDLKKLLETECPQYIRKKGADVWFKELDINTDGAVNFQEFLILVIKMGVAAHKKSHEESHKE


How the values were obtained:
CDSN = target: T1, CDSN; assay: co-IP, anti-FLAG, C-FLAG B3GNT2 cell lysate, mass spectrometry
Description: (§1) Cells were plated in 10-cm cell culture dishes and grown to 60-80% confluency. For each condition, two biological replicates were harvested for co-IP. Cells were washed with PBS and 4 mL of lysis buffer (20 mM HEPES, 1% Triton X-100, 150 mM NaCl, 1 mM EDTA, and 10% glycerol) containing protease inhibitor cocktail was added. Cells were scraped and lysate was incubated at 4° C. under rotary agitation for 1 h. Lysate was centrifuged at 14,000×g for 10 min at 4° C. Supernatant was transferred to a new tube and an aliquot was taken as the input. […] For Western blots, 10 μg/mL Chicken Anti-FLAG (Aves labs ET-DY100) and IgY control (R&D Systems AB-101-C) antibodies were biotinylated (Thermo Fisher Scientific 90407) and added to the respective conditions. Lysates with antibodies were incubated at 4° C. under rotary agitation overnight. For each mL of lysate, 50 μL of Pierce Protein A/G Magnetic Beads (Mass spectrometry; Thermo Fisher Scientific 88803) or Pierce Streptavidin Magnetic Beads (Western blot; Thermo Fisher Scientific 88817) was washed twice with lysis buffer. Lysates with antibodies were added to the beads and incubated at 4° C. under rotary agitation for 4 h. Beads were washed with lysis buffer 3 times and resuspended in lysis buffer for storage.
(§2) Magnetic beads were resuspended in 100 mM Tris pH 7.8, reduced, alkylated and digested with trypsin at 37° ° C. overnight. This solution was subjected to solid phase extraction to concentrate the peptides and remove unwanted reagents followed by injection onto a Shimadzu HPLC with fraction collector. Eight fractions were collected and after concentration were injected on a Waters NanoAcquity HPLC equipped with a self-packed Aeris 3 μm C18 analytical column 0.075 mm by 20 cm, (Phenomenex). Peptides were eluted using standard reverse-phase gradients. The effluent from the column was analyzed using a Thermo Orbitrap Elite mass spectrometer (nanospray configuration) operated in a data dependent manner for 54 minutes. The resulting fragmentation spectra were correlated against the known database using Proteome Discover 1.4 (Thermo Fisher Scientific).

ARG1 = target: T2, ARG1; assay: as above
Description: as §1, §2

CFL1 = target: T9, CFL1 (UniProt P23528 2-166); assay: as above
T9 construct: also called NP_005498.1
Description: as §1, §2

RPS2 = RPS2 (UniProt P15880 2-293); assay: as above
Description: as §1, §2

RPS23 = RPS23 (UniProt P62266 2-143); assay: as above
Description: as §1, §2

RPS13 = RPS13 (UniProt P62277 2-151); assay: as above
Description: as §1, §2

DEFA3 = target: T10, DEFA3 (UniProt P59666 65-94, limits assumed); assay: as above
T10 construct: also called NP_005208.1 (+1)
Description: as §1, §2

RPS18 = RPS18 (UniProt P62269 2-152); assay: as above
Description: as §1, §2

POF1B = target: T3, POF1B; assay: as above
Description: as §1, §2

EMD = target: T4, EMD; assay: as above
Description: as §1, §2

TMEM59 = target: T5, TMEM59; assay: as above
Description: as §1, §2

RPS17 = RPS17 (UniProt P08708 2-135); assay: co-IP with anti-FLAG, mass spectrometry; C-FLAG B3GNT2
Description: as §1, §2

S100A9 = target: T6, S100A9; assay: as above
Description: as §1, §2

TRIM21 = target: T11, TRIM21 (UniProt P19474 1-475); assay: as above
T11 construct: Endogenous protein found in the co-IP by mass spectrometry; also called NP_003132.2
Description: as §1, §2

ENO1 = target: T12, ENO1 (UniProt P06733 2-434); assay: as above
T12 construct: Endogenous protein found in the co-IP by mass spectrometry; also called NP_001419.1
Description: as §1, §2

SPRR2E = target: T7, SPRR2E; assay: as above
Description: as §1, §2

AHNAK = target: T13, AHNAK (UniProt Q09666 1-5890); assay: as above
T13 construct: Endogenous protein found in the co-IP by mass spectrometry; also called NP_001611.1
Description: as §1, §2

RPS11 = RPS11 (UniProt P62280 2-158); assay: as above
Description: as §1, §2

S100A8 = target: T8, S100A8; assay: as above
Description: as §1, §2

PPIA = target: T14, PPIA (UniProt P62937 2-165); assay: as above
T14 construct: Endogenous protein found in the co-IP by mass spectrometry; also called NP_066953.1
Description: as §1, §2

T14 sequence (P62937 2-165 limits assumed): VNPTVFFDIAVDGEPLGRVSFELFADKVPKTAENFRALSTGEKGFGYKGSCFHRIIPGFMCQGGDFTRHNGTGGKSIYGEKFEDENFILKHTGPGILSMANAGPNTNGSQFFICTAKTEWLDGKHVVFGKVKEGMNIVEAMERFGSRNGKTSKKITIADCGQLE
T12 sequence (P06733 2-434 limits assumed): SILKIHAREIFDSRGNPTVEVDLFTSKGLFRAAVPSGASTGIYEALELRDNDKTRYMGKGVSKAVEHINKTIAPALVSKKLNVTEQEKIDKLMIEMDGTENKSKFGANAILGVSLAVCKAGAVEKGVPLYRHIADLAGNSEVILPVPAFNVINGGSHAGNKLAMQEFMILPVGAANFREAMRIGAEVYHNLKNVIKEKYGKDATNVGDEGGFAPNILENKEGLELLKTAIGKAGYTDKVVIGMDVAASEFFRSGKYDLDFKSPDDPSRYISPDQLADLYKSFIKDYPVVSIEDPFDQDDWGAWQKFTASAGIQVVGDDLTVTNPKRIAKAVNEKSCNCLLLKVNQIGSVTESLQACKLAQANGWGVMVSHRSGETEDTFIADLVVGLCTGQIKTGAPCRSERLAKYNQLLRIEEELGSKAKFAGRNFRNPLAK
T11 sequence (P19474 whole entry): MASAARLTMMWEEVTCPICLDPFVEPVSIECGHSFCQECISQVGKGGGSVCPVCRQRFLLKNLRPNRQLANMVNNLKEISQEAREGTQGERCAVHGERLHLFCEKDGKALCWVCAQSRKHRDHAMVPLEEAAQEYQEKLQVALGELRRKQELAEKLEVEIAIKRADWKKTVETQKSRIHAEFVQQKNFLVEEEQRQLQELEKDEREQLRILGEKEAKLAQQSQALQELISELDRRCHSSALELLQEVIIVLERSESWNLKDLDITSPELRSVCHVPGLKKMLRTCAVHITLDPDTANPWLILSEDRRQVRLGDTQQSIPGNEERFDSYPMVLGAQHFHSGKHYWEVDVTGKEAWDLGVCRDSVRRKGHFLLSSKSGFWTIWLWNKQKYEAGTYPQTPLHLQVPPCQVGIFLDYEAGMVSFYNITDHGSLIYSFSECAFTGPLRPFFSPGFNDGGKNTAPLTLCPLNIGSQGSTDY
T9 sequence (P23528 2-166 limits assumed): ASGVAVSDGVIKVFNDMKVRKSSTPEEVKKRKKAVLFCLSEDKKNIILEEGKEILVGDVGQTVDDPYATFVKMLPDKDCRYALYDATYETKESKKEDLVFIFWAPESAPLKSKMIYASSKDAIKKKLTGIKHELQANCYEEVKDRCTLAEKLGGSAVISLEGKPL
T10 sequence (P59666 65-94 limits assumed): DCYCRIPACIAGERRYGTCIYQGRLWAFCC

co-IP mass spectrometry count (CDSN) | co-IP mass spectrometry count (ARG1) | co-IP mass spectrometry count (CFL1) | co-IP mass spectrometry count (RPS2) | co-IP mass spectrometry count (RPS23) | co-IP mass spectrometry count (RPS13) | co-IP mass spectrometry count (DEFA3) | co-IP mass spectrometry count (RPS18) | co-IP mass spectrometry count (POF1B) | co-IP mass spectrometry count (EMD) | co-IP mass spectrometry count (TMEM59) | co-IP mass spectrometry count (RPS17) | co-IP mass spectrometry count (S100A9) | co-IP mass spectrometry count (TRIM21) | co-IP mass spectrometry count (ENO1) | co-IP mass spectrometry count (SPRR2E) | co-IP mass spectrometry count (AHNAK) | co-IP mass spectrometry count (RPS11) | co-IP mass spectrometry count (S100A8) | co-IP mass spectrometry count (PPIA) | Binder
0 | 6 | 6 | 24 | 16 | 4 | 8 | 18 | 0 | 2 | 0 |  |  |  |  |  |  |  |  |  | C-terminal FLAG tagged B3GNT2 (enzyme, human, UniProt Q9NY97 1-397, looked up, Bait of the co-IP; pulled down with mouse anti-FLAG from cell lysate; also called C-FLAG B3GNT2; C-term flag; not shown: FLAG tag at the C-terminus) MSVGRRRIKLLGILMMANVFIYFIMEVSKSSSQEKNGKGEVIIPKEKFWKISTPPEAYWNREQEKLNRQYNPILSMLTNQTGEAGRLSNISHLNYCEPDLRVTSVVTGFNNLPDRFKDFLLYLRCRNYSLLIDQPDKCAKKPFLLLAIKSLTPHFARRQAIRESWGQESNAGNQTVVRVFLLGQTPPEDNHPDLSDMLKFESEKHQDILMWNYRDTFFNLSLKEVLFLRWVSTSCPDTEFVFKGDDDVFVNTHHILNYLNSLSKTKAKDLFIGDVIHNAGPHRDKKLKYYIPEVVYSGLYPPYAGGGGFLYSGHLALRLYHITDQVHLYPIDDVYTGMCLQKLGLVPEKHKGFRTFDIEEKNKNNICSYVDLMLVHSRKPQEMIDIWSQLQSAHLKC
 |  |  |  |  |  |  |  |  |  |  | 10 | 9 | 0 | 4 | 0 | 2 | 18 | 3 | 0 | C-terminal FLAG tagged B3GNT2 (enzyme, human, UniProt Q9NY97 1-397, looked up, FLAG-tagged ORF overexpressed in cells; bait of the anti-FLAG co-IP; also called C-FLAG B3GNT2; C-term flag; not shown: FLAG tag at the C-terminus) MSVGRRRIKLLGILMMANVFIYFIMEVSKSSSQEKNGKGEVIIPKEKFWKISTPPEAYWNREQEKLNRQYNPILSMLTNQTGEAGRLSNISHLNYCEPDLRVTSVVTGFNNLPDRFKDFLLYLRCRNYSLLIDQPDKCAKKPFLLLAIKSLTPHFARRQAIRESWGQESNAGNQTVVRVFLLGQTPPEDNHPDLSDMLKFESEKHQDILMWNYRDTFFNLSLKEVLFLRWVSTSCPDTEFVFKGDDDVFVNTHHILNYLNSLSKTKAKDLFIGDVIHNAGPHRDKKLKYYIPEVVYSGLYPPYAGGGGFLYSGHLALRLYHITDQVHLYPIDDVYTGMCLQKLGLVPEKHKGFRTFDIEEKNKNNICSYVDLMLVHSRKPQEMIDIWSQLQSAHLKC
